Test results published in the RNAGym collection of RNA variant scans (doi:10.7554/elife.80360).

B1: HDV Ribozyme (parent)
chain: GGCCGGCAUGGUCCCAGCCUCCUCGCUGGCGCCGGCUGGGCAACAUUCCGAGGGGACCGUCCCCUCGGUAAUGGCGAAUGGGACCCA

Variants of: B1
Test: self-cleavage, relative activity (ratio to wild type); higher = more cleavage; co-transcriptional
Variant GGCCGGCAUGGUCCCAGCCUCCUCCCUGGCGCCGGCUGGGCAACAUUCCGAGGGGACCGUCCCCUCGGUAAUGGCGAAUGGGACCCA has a self-cleavage of 0.0909. For GGCCGGCAUGGUCCCAGCCUCCUCACUGGCGCCGGCUGGGCAACAUUCCGAGGGGACCGUCCCCACGGUAAUGGCGAAUGGGACCCA, the self-cleavage was 0.122. Variant GGCCGGCAUGGUCCCAGCCUCCUCACUGGCGCCGGCUGGGCAACAUUCCGAGGGGACCGUCCCCGCGGUAAUGGCGAAUGGGACCCA has a self-cleavage of 0.269. GGCCGGCAUGGUCCCAGCCUCCUCCCUGGCGCCGGCUGGGCAACAUUCCGAGGGGACCGUACCCUCGGUAAUGGCGAAUGGGACCCA showed a self-cleavage of 0.201. For GGCCGGCAUGGUCCCAGCCUCCUCCCUGGCGCCGGCUGGGCAACAUUCCGAGGGGACCGUGCCCUCGGUAAUGGCGAAUGGGACCCA, the self-cleavage was 0.175. GGCCGGCAUGGUCCCAGCCUCCUCCCUGGCGCCGGCUGGGCAACAUUCCGAGGGGACCGUUCCCUCGGUAAUGGCGAAUGGGACCCA showed a self-cleavage of 0.0354. With GGCCGGCAUGGUCCCAGCCUCCUCCCUGGCGCCGGCUGGGCAACAUUCCGAGGGGACCGUCCCCUAGGUAAUGGCGAAUGGGACCCA the self-cleavage was 0.0627. For GGCCGGCAUGGUCCCAGCCUCCUCCCUGGCGCCGGCUGGGCAAUAUUCCGAGGGGACCGUCCCCUCGGUAAUGGCGAAUGGGACCCA, the self-cleavage was 0.259. GGCCGGCAUGGUCCCAGCCUCCUCCCUGGCGCCGGCUGGGCAACAUUCCGAGGGGACUGUCCCCUCGGUAAUGGCGAAUGGGACCCA showed a self-cleavage of 0.0739. Variant GGCCGGCAUGGUCCCAGCCUCCUCCCUGGCGCCGGCUGGGCAACAUUCCGAGGGGACAGUCCCCUCGGUAAUGGCGAAUGGGACCCA has a self-cleavage of 0.104. Variant GGCCGGCAUGGUCCCAGCCUCCUCCCUGGCGCCGGCUGGGCAACAUUCCGAGGGGUCCGUCCCCUCGGUAAUGGCGAAUGGGACCCA has a self-cleavage of 0.178. In the case of GGCCGGCAUGGUCCCAGCCUCCUCCCUGGCGCCGGCUGGGCAACAUUCCGAGGGGGCCGUCCCCUCGGUAAUGGCGAAUGGGACCCA, the self-cleavage is reported as 0.161. GGCCGGCAUGGUCCCAGCCUCCUCCCUGGCGCCGGCUGGGCAACAUUCCGAGGGGCCCGUCCCCUCGGUAAUGGCGAAUGGGACCCA showed a self-cleavage of 0.115. Work on GGCCGGCAUGGUCCCAGCCUCCUCCCUGGCGCCGGCUGGGCAACAUUCCGAGGGGACCGUCCUCUCGGUAAUGGCGAAUGGGACCCA yielded a self-cleavage of 0.0739. In the case of GGCCGGCAUGGUCCCAGCCUCCUCCCUGGCGCCGGCUGGGCAACAUUCCGAGGGGACCGUCCACUCGGUAAUGGCGAAUGGGACCCA, the self-cleavage is reported as 0.0755. GGCCGGCAUGGUCCCAGCCUCCUCCCUGGCGCCGGCUGGGCAACAUUCCGAGGGGACCGUCCCUUCGGUAAUGGCGAAUGGGACCCA showed a self-cleavage of 0.0369. In the case of GGCCGGCAUGGUCCCAGCCUCCUCCCUGGCGCCGGCUGGGCAACAUUCCGAGGGGACCGUCCCAUCGGUAAUGGCGAAUGGGACCCA, the self-cleavage is reported as 0.203. In the case of GGCCGGCAUGGUCCCAGCCUCCUCCCUGGCGCCGGCUGGGCAACAUUCCGAGGGGACCGUCCCCUCGGUAAUGGCGAAUGGGGCCCA, the self-cleavage is reported as 0.0302. For GGCCGGCAUGGUCCCAGCCUCCUCCCUGGCGCCGGCUGGGCAACAUUCCGAGGGGACCGUCCCCUCGGUAAUGGCGAAUGGGCCCCA, the self-cleavage was 0.0489. Variant GGCCGGCAUGGUCCCAGCCUCCUCCCUGGCGCCGGCUGGGCAACAUUCCGAGGGGACCGUCCCCUCGGUAAUGGCGAAUGGGACCAA has a self-cleavage of 0.128. GGCCGGCAUGGUCCCAGCCUCCUCCCUGGCGCCGGCUGGGCAACAUUCCGAGGGGACCGUCCCCUCGGUAAUGGCGAAUGGGACCUA showed a self-cleavage of 0.104. With GGCCGGCAUGGUCCCAGCCUCCUCCCUGGCGCCGGCUGGGCAACAUUCCGGGGGGACCGUCCCCUCGGUAAUGGCGAAUGGGACCCA the self-cleavage was 0.237. With GGCCGGCAUGGUCCCAGCCUCCUCCCUGGCGCCGGCUGGGCAACAUUACGAGGGGACCGUCCCCUCGGUAAUGGCGAAUGGGACCCA the self-cleavage was 0.0415. GGCCGGCAUGGUCCCAGCCUCCUCCCUGGCGCCGGCUGGGCAACAUUCUGAGGGGACCGUCCCCUCGGUAAUGGCGAAUGGGACCCA showed a self-cleavage of 0.222. With GGCCGGCAUGGUCCCAGCCUCCUCCCUGGCGCCGGCUGGGCAACAUUCGGAGGGGACCGUCCCCUCGGUAAUGGCGAAUGGGACCCA the self-cleavage was 0.0594. GGCCGGCAUGGUCCCAGCCUCCUCCCUGGCGCCGGCUGGGCAACAUUCCGAGGGGACCGUCCCCUCGGUACUGGCGAAUGGGACCCA gave a self-cleavage of 0.0475. For GGCCGGCAUGGUCCCAGCCUCCUCCCUGGCGCCGGCUGGGCAACAUUCCGAGGGGACCGUCCCCUCGGUAUUGGCGAAUGGGACCCA, the self-cleavage was 0.19. Work on GGCCGGCAUGGUCCCAGCCUCCUCCUUGGCGCCGGCUGGGCAACAUUCCGAGGGGACCGUCCCCUCGGUAAUGGCGAAUGGGACCCA yielded a self-cleavage of 0. GGCCGGCAUGGUCCCAGCCUCCUCACUGGCGCCGGCUGGGCAACAUUCCGAGGGGACCGUCCCCUCGGUAACGGCGAAUGGGACCCA showed a self-cleavage of 0.227. GGCCGGCAUGGUCCCAGCCUCCUCACUGGCGCCGGCUGGGCAACAUUCCGAGGGGACCGUCCCCUCGGUAAGGGCGAAUGGGACCCA gave a self-cleavage of 0.104. Work on GGCCGGCAUGGUCCCAGCCUCCUCCCUGGCGCCGGCUGGGCAACAUUCCGAGGGGACCGUCCCCUCGGUCAUGGCGAAUGGGACCCA yielded a self-cleavage of 0.0639. Variant GGCCGGCAUGGUCCCAGCCUCCUCCCUGGCGCCGGCUGGGCAACAUUCCGAGGGGACCGUCCCCUCGGUUAUGGCGAAUGGGACCCA has a self-cleavage of 0.0898.
